Experimental data from US20230381112A1, “Compositions and Methods of Manufacturing Amphiphilic Block Copolymers that Form Nanoparticles in Situ” (Vaccuitech North America, Inc., priority 2020, published 2023).
“Also recorded” adds a separate entry of the source. No end group written: not given here.

Assays:
NF-κB = assay: Innate immune stimulation: NF-κB activation in THP1 NF-κB SEAP reporter monocytes; format: cell-based, human; details: polymer up to 20 mg/mL in culture medium
[1] = tested on: human monocyte cells (THP1); details: 100 μM
Method: The cellular viability of retinal pigmented epithelial like cells (ARPE19) and monocyte like cells (THP1) were assessed following exposure to thermo-responsive polymer at physiologically relevant concentrations.
THP1 cells were grown in vitro in cell growth medium and exposed to thermo-responsive polymer micelle that was resuspended in cell growth medium at the concentrations specified up to 20 mg/mL. […] Cell viability was assessed using Promega CellTiter 96® Non-Radioactive Cell Proliferation Assay (MTT).

[2] = DLS temperature sweep in PBS: hydrodynamic diameter (DH), transition temperature (Ttr), solubility/aggregation; format: physicochemical; details: for Ttr: drug conjugate polymers; for Ttr / DH^20° C. / DH^37° C.: PBS at 0.5 mg/mL; for DH^20° C.: hydrodynamic diameter at 20° C.; for DH^37° C.: hydrodynamic diameter at 37° C.
Source text: Temperature-responsive: Refers to changes in properties of a material with changes in temperature. A material may be described as temperature-responsive if the properties of the material change with respect to changes in temperature. Temperature-responsive polymers are polymers that experience a change in physical properties in response to temperature, such as a change in solubility with changes temperature, which may be described by a lower critical solution temperature (LCST) or upper critical solution temperature (UCST). Preferred embodiments of the temperature-responsive polymers described herein have reduced solubility at elevated temperatures, which may be described by an LCST or transition temperature (Ttr), if the LCST is unknown. Transitions temperatures described herein are experimentally determined by dynamic light scattering or by turbidity, wherein particle size (or light scattering intensity) or absorbance are plotted against temperature to produce a sigmoidal curve. The transition temperature as used herein is the temperature (value on the x-axis) at which the y-value is 50% the maximum value of the sigmoidal curve. Temperature-responsive monomers are monomers that form temperature-responsive polymers. […] Note: temperature-responsive monomers are defined herein as a type of hydrophobic monomer that is hydrophobic at certain temperatures.
Hydrodynamic behavior, thermo-responsiveness, and solubility under aqueous conditions. Prepared polymers and control materials were characterized for nanoparticle hydrodynamic diameter by dynamic light scattering (DLS), thermo-responsivity and overall solubility in PBS.

[3] = Concentration-dependent hydrodynamic behavior by DLS in PBS (0.8 to 200 mg/mL, 20-37° C.); details: result in words; 5 mg/mL vs 200 mg/mL in PBS
Method: Unless otherwise indicated, the hydrodynamic diameter (DH), also referred to as simply the diameter or as the number average diameter or number mean diameter, of the polymers and copolymers were measured using dynamic light scattering (DLS) at a scattering angle θ=90° using a Zetasizer Ultra (Malvern Panalytical, Malvern, England) equipped with a 633 nm laser, capillary cell (ZSU1002) and ZS Xplorer software. […] For measurements presented, number mean diameter was used for assessment. […] For transition temperature (Ttr) characterization, DLS measurements were performed for temperature sweeps over a maximum range of 4-50° C. at a concentration of 0.5 mg/mL, 5 mg/mL or 200 mg/mL in PBS (150 mM NaCl, pH 7.4). At each step, measurements were performed after reaching steady-state temperature conditions. Characterization of the polymer chain conformational changes was evaluated from the temperature dependence of the hydrodynamic diameter (DH); the Ttr value was determined from the intersection point of two lines formed by the linear regression of a lower horizontal asymptote and a vertical section of the S-shaped curve (sigmoidal curve) fit.

[4] = polymers of temperature-responsive monomers; cited from earlier work
[5] = intravitreal injection; cited from earlier work

Row | Compound | Ttr [2] | DH^20° C. [2] | DH^37° C. [2] | also measured
1 | CCCCc1nc2c(N)nc3ccccc3c2n1CCCCN [Compound 34, 1-(4-aminobutyl)-2-butyl-1H-imidazo[4,5-c]quinolin-4-amine] | – | – | – | NF-κB activation (NF-κB): strong NF-κB response; viability of THP1 cells [1]: 10-20%
2 | CN-p[(NIPMAM)f1-co-(BnMAM)f2]-b-p(HPMA)a-PEG4-Ova [Compound 291] | 28 °C | 7.4 nm | 40.4 nm | thermo-responsive and micelle-forming behavior ([2]; result in words, DLS in PBS): retains temperature responsiveness; concentration-responsive micellization [3]: retain concentration responsive micellization properties; also recorded: similarly demonstrated
3 | CN-p[(NIPMAM)f1-co-(BnMAM)f2]-b-p(HPMA)a-PEG4-Ova [Compound 292] | 32 °C | 6.1 nm | 36.5 nm | –
4 | CN-p[(NIPMAM)f1-co-(BnMAM)f2]-b-p(HPMA)a-PEG4-Ova [Compound 293] | 29 °C | 5.7 nm | 41.1 nm | –
5 | CN-p[(NIPMAM)f1-co-(BnMAM)f2]-b-p(HPMA)a-pip-diABZI [Compound 290] | 31 °C | 15.3 nm | 25.3 nm | –
6 | P(Val-Pro-Gly-Val-Gly)(SEQ ID NO: 3) (VPGVG; also: polymer of peptide-derived monomer) | – | – | – | LCST or Ttr [4]: 27 °C
7 | Ranibizumab: Fab molecule used for intravitreal injections | – | – | – | vitreal half-life [5]: 76.8 h
8 | Val-Pro-Gly-Val-Gly (SEQ ID NO: 3) derived polymethacrylate: polymethacrylate derived from the pentapeptide, Class IV of Table 1 (VPGVG; also: polymethacrylate backbone with pendant peptide) | – | – | – | LCST or Ttr [4]: 15-55 °C
